Biological target: the molecule itself
Experiment: native gel or EMSA; TS-actin and associated proteins eluted from StrepTactin resin with 2 mM biotin, run at once on 4-16% NativePAGE, western blot; also samples crosslinked with DSP before lysis

B1: Gl14-3-3-HA (endogenously C-terminally 3XHA tagged Gl14-3-3) (natural protein, Giardia lamblia, UniProt E2RU97 1-248, looked up)
chain: MAEAFTREDYVFMAQLNENAERYDEMVETMRKISGMEGELSDKERNLLSVAYKNVIGPRRAAWRIVSSIEAKEKGRQKPNAKRIEQIRVYRQKIEKELSDICNDILKLLQEQFVPRSTNADAKVFYYKMQGDYYRYLAEYSSGEDKEKIAGSALNAYNSAFEISQQLPPTHPIRLGLALNFSVFYYEILASPDRACELARKAFDAAITDLDKLTEESYKDSTLIMQLLRDNLNLWVTDSAGDDNAEEK
notes: the single 14-3-3 homolog of Giardia (Gl14-3-3), GL50803_6430; source: Giardia trophozoites, endogenously tagged, in lysate; not shown: 3XHA, C-terminal, kept
stoichiometry N: 2

— paper doi:10.1101/142505, “14-3-3 Negatively Regulates Actin Filament Formation in the Deep Branching Eukaryote Giardia lamblia” (bioRxiv, 2017)
